Experimental data as given in paper PMC8017934.
Where “and” joins values, the source holds several entries; their conditions need not be identical. Equal values may be shown once. Read-outs that look alike come from different tables or passages of the source.

How the values were obtained:
[1] = target: SARS-CoV-2 NSP1 (ybbR-NSP1) WT;human 40S ribosomal subunit (SARS-CoV-2;Homo sapiens) (UniProt P0DTD1); assay: single-molecule fluorescence (ZMW)
[2] = target: SARS-CoV-2 NSP1 (ybbR-NSP1) WT;human 40S ribosomal subunit;eIF1, eIF1A, eIF5, TC-GMPPNP (eIF2, Met-tRNAi) (SARS-CoV-2;Homo sapiens;Homo sapiens) (UniProt P0DTD1); assay: single-molecule fluorescence (ZMW)
[3] = test system: human 40S ribosomal subunit;eIF1, eIF1A, eIF5, TC-GMPPNP (eIF2, Met-tRNAi) (Homo sapiens;Homo sapiens); assay: single-molecule fluorescence (ZMW)
[4] = target: SARS-CoV-2 NSP1 (ybbR-NSP1) WT;human 40S ribosomal subunit;eIF1, eIF1A, eIF5, eIF3 lacking 3j, TC-GMPPNP (eIF2, Met-tRNAi) (SARS-CoV-2;Homo sapiens;Homo sapiens) (UniProt P0DTD1); assay: single-molecule fluorescence (ZMW)
[5] = target: human 40S ribosomal subunit with the ybbR tag on RACK1, biotinylated or Cy5-labelled (human) (UniProt P63244)
[6] = target: human 40S ribosomal subunit with the ybbR tag on RACK1, biotinylated or Cy5-labelled (human) (UniProt P63244); remark: listed apart in the source
[7] = target: human 40S ribosomal subunit with the ybbR tag on RACK1, biotinylated or Cy5-labelled (human) (UniProt P63244); remark: listed apart in the source
[8] = target: eIF1–40S(biotin) subunit complex (human) (UniProt P41567)
[9] = target: human 80S ribosome assembled on the CrPV IRES from 40S-ybbR-Cy3 and 60S-ybbR-Cy5 subunits (human (endogenous in HEK293T)) (UniProt P62841)
[10] = target: human 40S ribosomal subunit with the ybbR tag on RACK1, biotinylated or Cy5-labelled (human) (UniProt P63244); remark: listed apart in the source
[11] = target: human 40S ribosomal subunit with the ybbR tag on uS19, Cy3-labelled (human (endogenous in HEK293T)) (UniProt P62841)
[12] = target: MERS-CoV NSP1;human 40S ribosomal subunit (MERS-CoV;Homo sapiens) (UniProt K9N7C7); assay: single-molecule fluorescence (ZMW)
[13] = test system: Bat-Hp-CoV NSP1;human 40S ribosomal subunit (Bat-Hp-CoV;Homo sapiens); assay: single-molecule fluorescence (ZMW)
[14] = target: SARS-CoV NSP1;human 40S ribosomal subunit (SARS-CoV;Homo sapiens) (UniProt P0C6X7); assay: single-molecule fluorescence (ZMW)
[15] = target: human 40S ribosomal subunit with the ybbR tag on RACK1, biotinylated or Cy5-labelled (human) (UniProt P63244); remark: listed apart in the source

Chain of UniProt P41567 (P41567 whole entry, looked up, tested part not stated, one chain of several): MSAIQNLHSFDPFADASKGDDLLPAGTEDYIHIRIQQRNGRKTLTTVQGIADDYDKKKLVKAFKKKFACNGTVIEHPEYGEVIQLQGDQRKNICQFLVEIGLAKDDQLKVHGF

Substance: GGUCUCUCUCUCUCUCUCUAUGUUCAAAUAAUCUCUCUCUCUCUCUCUCUCUCUCUCUCUCUC [M+41]
- binding signal (% complexes bound) [1]: 16
- binding signal [2]: 4 s-1 (koff)
- binding signal [3]: 0.0038 s-1 (koff)

Substance: GGCCAGCCCCCUGAUGGGGGCGACACUCCACCAUGAAUCACUCCCCUGUGAGGAACUACUGUCUUCACGCAGAAAGCGUCUAGCCAUGGCGUUAGUAUGAGUGUCGUGCAGCCUCCAGGACCCCCCCUCCCGGGAGAGCCAUAGUGGUCUGCGGAACCGGUGAGUACACCGGAAUUGCCAGGACGACCGGGUCCUUUCUUGGAUAAACCCGCUCAAUGCCUGGAGAUUUGGGCGUGCCCCCGCAAGACUGCUAGCCGAGUAGUGUUGGGUCGCGAAAGGCCUUGUGGUACUGCCUGAUAGGGUGCUUGCGAGUGCCCCGGGAGGUCUCGUAGACCGUGCACCAUGAGCACG [HCV+6]
- binding signal (% complexes bound) [1]: 81

Substance: GGCCAGCCCCCUGAUGGGGGCGACACUCCACCAUGAAUCACUCCCCUGUGAGGAACUACUGUCUUCACGCAGAAAGCGUCUAGCCAUGGCGUUAGUAUGAGUGUCGUGCAGCCUCCAGGACCCCCCCUCCCGGGAGAGCCAUAGUGGUCUGCGGAACCGGUGAGUACACCGGAAUUGCCAGGACGACCGGGUCCUUUCUUGGAUAAACCCGCUCAAUGCCUGGAGAUUUGGGCGUGCCCCCGCAAGACUGCUAGCCGAGUAGUGUUGGGUCGCGAAAGGCCUUGUGGUACUGCCUGAUAGGGUGCUUGCGAGUGCCCCGGGAGGUCUCGUAGACCGUGCACCAUGAGCACGAAUCCU [HCV+12]
- binding signal [1]: 0.044 s-1 (kobs)
- binding signal [4]: 0.013 s-1 (kobs)

Substance: SARS-CoV-2 NSP1 with an N-terminal ybbR tag, fluorescently labelled (from UniProt P0DTD1 1-180) (natural protein)
- kon [5]: 3e+06 to 4e+06 M⁻¹ s⁻¹
- Kd [6]: > 3000 nM
- koff [6]: 0.25 s⁻¹
- Kd [7]: < 1 nM
- fraction of IRES–40S complexes bound at least once by NSP1 (≥∼5 s) [7]: 77% and 60%
- koff [7]: < 0.0043 s⁻¹
- Kd [8]: < 10 nM
- koff [8]: 0.0042 s⁻¹
- kon [8]: 300000 M⁻¹ s⁻¹
- fraction of traces with an NSP1 binding event [9]: 30%
- fraction of mRNA–40S complexes bound at least once by NSP1 (≥∼5 s) [10]: 16%
- kobs (apparent association rate) [10]: < 0.002 s⁻¹
- time NSP1 remained bound after association [11]: 120 s

Substance: GGCCAGCCCCCUGAUGGGGGCGACACUCCACCAUGAAUCACUCCCCUGUGAGGAACUACUGUCUUCACGCAGAAAGCGUCUAGCCAUGGCGUUAGUAUGAGUGUCGUGCAGCCUCCAGGACCCCCCCUCCCGGGAGAGCCAUAGUGGUCUGCGGAACCGGUGAGUACACCGGAAUUGCCAGGACGACCGGGUCCUUUCUUGGAUAAACCCGCUCAAUGCCUGGAGAUUUGGGCGUGCCCCCGCAAGACUGCUAGCCGAGUAGUGUUGGGUCGCGAAAGGCCUUGUGGUACUGCCUGAUAGGGUGCUUGCGAGUGCCCCGGGAGGUCUCGUAGACCGUGCACCAUGAGCACGAAUCCUAAACCUCAAAGAAAAACCGCCAGAACCAUGGAAGAC [HCV+48]
- Kd [1]: > 2000 nM
- binding signal (% 40S events with NSP1) [1]: 60

Substance: GGCCAGCCCCCUGAUGGGGGCGACACUCCACCAUGAAUCACUCCCCUGUGAGGAACUACUGUCUUCACGCAGAAAGCGUCUAGCCAUGGCGUUAGUAUGAGUGUCGUGCAGCCUCCAGGACCCCCCCUCCCGGGAGAGCCAUAGUGGUCUGCGGAACCGGUGAGUACACCGGAAUUGCCAGGACGACCGGGUCCUUUCUUGGAUAAACCCGCUCAAUGCCUGGAGAUUUGGGCGUGCCCCCGCAAGACUGCUAGCCGAGUAGUGUUGGGUCGCGAAAGGCCUUGUGGUACUGCCUGAUAGGGUGCUUGCGAGUGCCCCGGGAGGUCUCGUAGACCGUGCACCAUG [HCV+0]
- Kd [1]: < 1 nM
- binding signal (% 40S events with NSP1) [1]: 57
- binding signal (% complexes bound) [12]: 11
- Kd [13]: < 1 nM
- Kd [14]: < 2 nM

Substance: SARS-CoV NSP1 with an N-terminal ybbR tag, Cy3-labelled (from UniProt P0C6X7 1-180) (natural protein)
- Kd [15]: < 2 nM
- fraction of IRES–40S complexes bound at least once by NSP1 (≥∼5 s) [15]: 62%
- koff [15]: < 0.006 s⁻¹
